Several values for one entry are separate records, joined by “and”; a condition that tells them apart may be missing. Equal entries are not always repeated.
Legend:
[1] = system: regular 4T1-luc cells; experiment: Cytotoxicity, regular 4T1-luc cells; format: cell-based, murine; conditions: Mus musculus; regular 4T1-luc cells, 72 hours; read-out: IC50
Description: Cytotoxicity studies. The cytotoxicity was measured as previously described (Zhao, et al; Mol. Pharm, 2014; 11(8):2703-12). The incubation time was 72 hours. 4T1-lu mammosphere cells were generated as the previously described (Zhao, et al; Mol. Pharm, 2014; 11(8):2703-12).

[2] = Thermally-induced reversible phase transition (turbidity OD350 vs temperature); format: physicochemical
Text: Characterization of thermally-induced, reversible, inverse phase transition of iTEPs and the iTEPB-iTEPA-pOVA fusion. The phase transitions of iTEP or iTEP fusions were characterized by turbidity changes of sample solutions as a function of temperature. Specifically, the optical density at 350 nm (OD350) of a sample solution was monitored using an UV-visible spectrophotometer equipped with a multi-cell thermoelectric temperature controller (Cary 300, Varian Instruments, Walnut Creek, CA) while the solution was heated from 20° C. to 80° C. and then cooled to 20° C. at a rate of 1° C./min. The maximum first derivative of the turbidity curve of a sample was identified. The transition temperature (Tt) of the sample is the temperature that corresponds to the maximum derivative.

[3] = system: C57BL/6 mice; experiment: Humoral immunogenicity: IgG titers by ELISA in sera of immunized mice; conditions: mouse, in vivo
Description: Immunization of iTEPs and collection of immune sera. C57BL/6 mice were immunized twice at their right hocks with iTEPs at a dose of 100 μg/mouse. […] At 1 week after the second immunization, 100 μL blood was collected from each immunized mouse. The blood samples were allowed to sit for 30 minutes to one hour at room temperature to clot. Sera were collected from the blood samples after the samples were spun for 10 min at 14,000 rpm at 4° C. The sera were kept at −80° C. before an analysis of the titers of iTEP-specific IgG.
Determination of IgG titers by ELISA. […] Plates were read at OD 450 nm (minus 570 nm for wavelength correction).
The end point titer of a serum IgG was defined as the reciprocal of the higher serum dilution which OD value from the ELISA assay is higher than a statistically valid cutoff. The titer results were expressed as IgG titers (Log 10) for each sample. […] The value of the cutoff was calculated using the following equation:^(31) Cutoff=X+SD t√{square root over (1+(1/n))} where X is the mean absorbance readings of independent PBS control sera, SD is the standard deviation of the readings, n is the number of independent PBS controls (mouse samples), t is the (1−α)th percentile of the one-tailed t-distribution with v=n−1 degrees of freedom.

Row | Molecule | IC50 [1] [nM] | Relative Hydrophobicity [2] | (heating) Tt ([2]; 5 μM) [°C] | Tt (cooling) ([2]; 25 μM in H2O) [°C] | Tt (heating) ([2]; 25 μM in H2O) | humoral immunogenicity [3]
1 | CC(=O)O[C@H]1C(=O)[C@@]2(C)[C@H]([C@H](OC(=O)c3ccccc3)[C@]3(O)C[C@H](OC(=O)[C@H](O)[C@@H](NC(=O)c4ccccc4)c4ccccc4)C(C)=C1C3(C)C)[C@]1(OC(C)=O)CO[C@@H]1C[C@@H]2O [PTX, paclitaxel, reference compound] | 6.3 | – | – | – | – | –
2 | G(…)21GG (protein) GVPGLGAGAGVPGLGAGAGVPGLGAGAGVPGLGAGAGVPGLGAGAGVPGLGAGAGVPGLGAGAGVPGLGAGAGVPGLGAGAGVPGLGAGAGVPGLGAGAGVPGLGAGAGVPGLGAGAGVPGLGAGAGVPGLGAGAGVPGLGAGAGVPGLGAGAGVPGLGAGAGVPGLGAGAGVPGLGAGAGVPGLGAGAGVPGLGAGAGVPGLGAGAGVPGLGAGAGVPGLGAGAGVPGLGAGAGVPGLGAGAGVPGLGAGAGVPGLGAGAGVPGLGAGAGVPGLGAGAGVPGLGAGAGVPGLGAGAGVPGLGAGAGVPGLGAGAGVPGLGAGAGVPGLGAGAGVPGLGAGAGVPGLGAGAGVPGLGAGAGVPGLGAGAGVPGLGAGAGVPGLGAGAGVPGLGAGAGVPGLGAGAGVPGLGAGAGVPGLGAGAGVPGLGAGAGVPGLGAGAGVPGLGAGAGVPGLGAGAGVPGLGAGAGVPGLGAGAGVPGLGAGAGVPGLGAGAGVPGLGAGAGVPGLGAGAGVPGLGAGAGVPGLGAGAGVPGLGAGAGVPGLGAGAGVPGLGAGAGVPGLGAGAGVPGLGAGAGVPGLGAGAGVPGLGAGAGVPGLGAGAGVPGLGAGAGVPGLGAGAGVPGLGAGAGVPGLGAGAGVPGLGAGAGVPGLGAGAGVPGLGAGAGVPGLGAGAGVPGLGAGAGVPGLGAGAGVPGLGAGAGVPGLGAGAGVPGLGAGAGVPGLGAGAGVPGLGAGAGVPGLGAGAGVPGLGAGAGVPGLGAGAGVPGLGAGAGVPGLGAGAGVPGLGAGAGVPGLGAGAGVPGLGAGAGVPGLGAGAGVPGLGAGAGVPGLGAGAGVPGLGAGAGVPGLGAGAGVPGLGAGAGGG | – | High | 50.5 | 34.00 ± 0.58 | 35.7 °C and 35.70 ± 0.58 °C | did not show different immunogenicity

Source: patent publication US11957762B2, “Immune tolerant and non-immune tolerant elastin-like recombinant peptides and methods of use” (University of Utah Research Foundation, priority 2015, dated 2024)
